{
  "source": "paper PMC12287344",
  "origin": "cited, not measured here",
  "biological_target": "caspase-1 (Homo sapiens) (UniProt P29466)",
  "data": [
    {"substance": "caspase-1 (from UniProt P29466)", "values": [
      {"measurement": "Kd", "value": 110, "unit": "µM"}
    ]}
  ]
}
